# According to IntAct's records for PubMed 21460798:
# B1: APC/C activator protein CDH1 (Saccharomyces cerevisiae), P53197 (parent)
# chain: MSTNLNPFMNNTPSSSPLKGSESKRVSKRPISSSSSASLLSSPSRRSRPSTVYGDRYIPSRTDIDFNSIVSISSMASVPALNPSSTEDQVEYQKERQAHETYNTLLKNELFGEMLSKDTVGSESSIDRIKNTRPSTRGNVHAENTTRHGYELERVSTPPPEAAGLEEFSPHSTPVTPRRLFTSQQDEITRPSSNSVRGASLLTYQQRKGRRLSAASLLQSQFFDSMSPVRPDSKQLLLSPGKQFRQIAKVPYRVLDAPSLADDFYYSLIDWSSTDVLAVALGKSIFLTDNNTGDVVHLCDTENEYTSLSWIGAGSHLAVGQANGLVEIYDVMKRKCIRTLSGHIDRVACLSWNNHVLTSGSRDHRILHRDVRMPDPFFETIESHTQEVCGLKWNVADNKLASGGNDNVVHVYEGTSKSPILTFDEHKAAVKAMAWSPHKRGVLATGGGTADRRLKIWNVNTSIKMSDIDSGSQICNMVWSKNTNELVTSHGYSKYNLTLWDCNSMDPIAILKGHSFRVLHLTLSNDGTTVVSGAGDETLRYWKLFDKPKAKVQPNSLIFDAFNQIR
# B2: Probable serine/threonine-protein kinase HSL1 (Saccharomyces cerevisiae), P34244 (parent)
# chain: MTGHVSKTSHVPKGRPSSLAKKAAKRAMAKVNSNPKRASGHLERVVQSVNDATKRLSQPDSTVSVATKSSKRKSRDTVGPWKLGKTLGKGSSGRVRLAKNMETGQLAAIKIVPKKKAFVHCSNNGTVPNSYSSSMVTSNVSSPSIASREHSNHSQTNPYGIEREIVIMKLISHTNVMALFEVWENKSELYLVLEYVDGGELFDYLVSKGKLPEREAIHYFKQIVEGVSYCHSFNICHRDLKPENLLLDKKNRRIKIADFGMAALELPNKLLKTSCGSPHYASPEIVMGRPYHGGPSDVWSCGIVLFALLTGHLPFNDDNIKKLLLKVQSGKYQMPSNLSSEARDLISKILVIDPEKRITTQEILKHPLIKKYDDLPVNKVLRKMRKDNMARGKSNSDLHLLNNVSPSIVTLHSKGEIDESILRSLQILWHGVSRELITAKLLQKPMSEEKLFYSLLLQYKQRHSISLSSSSENKKSATESSVNEPRIEYASKTANNTGLRSENNDVKTLHSLEIHSEDTSTVNQNNAITGVNTEINAPVLAQKSQFSINTLSQPESDKAEAEAVTLPPAIPIFNASSSRIFRNSYTSISSRSRRSLRLSNSRLSLSASTSRETVHDNEMPLPQLPKSPSRYSLSRRAIHASPSTKSIHKSLSRKNIAATVAARRTLQNSASKRSLYSLQSISKRSLNLNDLLVFDDPLPSKKPASENVNKSEPHSLESDSDFEILCDQILFGNALDRILEEEEDNEKERDTQRQRQNDTKSSADTFTISGVSTNKENEGPEYPTKIEKNQFNMSYKPSENMSGLSSFPIFEKENTLSSSYLEEQKPKRAALSDITNSFNKMNKQEGMRIEKKIQREQLQKKNDRPSPLKPIQHQELRVNSLPNDQGKPSLSLDPRRNISQPVNSKVESLLQGLKFKKEPASHWTHERGSLFMSEHVEDEKPVKASDVSIESSYVPLTTVATSSRDPSVLAESSTIQKPMLSLPSSFLNTSMTFKNLSQILADDGDDKHLSVPQNQSRSVAMSHPLRKQSAKISLTPRSNLNANLSVKRNQGSPGSYLSNDLDGISDMTFAMEIPTNTFTAQAIQLMNNDTDNNKINTSPKASSFTKEKVIKSAAYISKEKEPDNSDTNYIPDYTIPNTYDEKAINIFEDAPSDEGSLNTSSSESDSRASVHRKAVSIDTMATTNVLTPATNVRVSLYWNNNSSGIPRETTEEILSKLRLSPENPSNTHMQKRFSSTRGSRDSNALGISQSLQSMFKDLEEDQDGHTSQADILESSMSYSKRRPSEESVNPKQRVTMLFDEEEEESKKVGGGKIKEEHTKLDNKISEESSQLVLPVVEKKENANNTENNYSKIPKPSTIKVTKDTAMESNTQTHTKKPILKSVQNVEVEEAPSSDKKNWFVKLFQNFSSHNNATKASKNHVTNISFDDAHMLTLNEFNKNSIDYQLKNLDHKFGRKVVEYDCKFVKGNFKFKIKITSTPNASTVITVKKRSKHSNTSSNKAFEKFNDDVERVIRNAGRS
# partner: B1 chain
# B3: APC/C-CDH1 modulator 1 (Saccharomyces cerevisiae), Q08981 (parent)
# chain: MISPSKKRTILSSKNINQKPRAVVKGNELRSPSKRRSQIDTDYALRRSPIKTIQISKAAQFMLYEETAEERNIAVHRHNEIYNNNNSVSNENNPSQVKENLSPAKICPYERAFLREGGRIALKDLSVDEFKGYIQDPLTDETIPLTLPLGDKKISLPSFITPPRNSKISIFFTSKHQGQNPETKISRSTDDVSEKKVVRKLSFHVYEDE
# partner: B1 chain
# B4: APC/C activator protein CDH1 (Saccharomyces cerevisiae), P53197 (parent)
# chain: B1 chain
# partner: B3 chain
# Variants of: B1
# Details: with hsl1_yeast HSL1, P34244
row,effect of a mutation on the interaction,Variant
1,disrupting interaction,L255V
2,disrupting interaction,P258A
3,increasing interaction,D536A
4,disrupting interaction,G535A

# Variants of: B2
# Details: with cdh1_yeast CDH1, P53197
row,effect of a mutation on the interaction,Variant
1,disrupting interaction,E781A
2,disrupting interaction,N777A
3,disrupting interaction,E776A
4,disrupting interaction,K775A

# Variants of: B3
# Details: with cdh1_yeast CDH1, P53197
row,effect of a mutation on the interaction,Variant
1,disrupting interaction,E69A

# Variants of: B3
# Details: with cdh1_yeast CDH1, P53197
# Remark: another data set of the same source
row,effect of a mutation on the interaction,Variant
1,decreasing interaction,E69A

# Variants of: B3
# Details: with cdh1_yeast CDH1, P53197
# Remark: another data set of the same source
row,effect of a mutation on the interaction,Variant
1,disrupting interaction,L11D
2,disrupting interaction,R8A

# Variants of: B4
# Details: with acm1_yeast ACM1, Q08981
row,effect of a mutation on the interaction,Variant
1,increasing interaction,D536A
2,disrupting interaction,L255V
3,disrupting interaction,G535A
4,disrupting interaction,P258A
